Measurements taken from IntAct's records for PubMed 25327252.

B1: E3 ubiquitin-protein ligase RNF146 (Homo sapiens), Q9NTX7 (parent)
chain: MMAGCGEIDHSINMLPTNRKANESCSNTAPSLTVPECAICLQTCVHPVSLPCKHVFCYLCVKGASWLGKRCALCRQEIPEDFLDKPTLLSPEELKAASRGNGEYAWYYEGRNGWWQYDERTSRELEDAFSKGKKNTEMLIAGFLYVADLENMVQYRRNEHGRRRKIKRDIIDIPKKGVAGLRLDCDANTVNLARESSADGADSVSAQSGASVQPLVSSVRPLTSVDGQLTSPATPSPDASTSLEDSFAHLQLSGDNTAERSHRGEGEEDHESPSSGRVPAPDTSIEETESDASSDSEDVSAVVAQHSLTQQRLLVSNANQTVPDRSDRSGTDRSVAGGGTVSVSVRSRRPDGQCTVTEV

Variants of: B1
Conditions: with tnks1_human TNKS

| effect of a mutation on the interaction | Variant |
| --- | --- |
| decreasing interaction strength | MMAGCGEIDHSINMLPTNRKANESCSNTAPSLTVPECAICLQTCVHPVSLPCKHVFCYLCVKGASWLGKRCALCRQEIPEDFLDKPTLLSPEELKAASRGNGEYAWYYEGRNGWWQYDERTSRELEDAFSKGKKNTEMLIAGFLYVADLENMVQYRRNEHGRRRKIKRDIIDIPKKGVAGLRLDCDANTVNLARESSADVADSVSAQSGASVQPLVSSVRPLTSVDGQLTSPATPSPDASTSLEDSFAHLQLSGDNTAERSHRGEGEEDHESPSSGRVPAPDTSIEETESDASSDSEDVSAVVAQHSLTQQRLLVSNANQTVPDRSDRSGTDRSVAGVVTVSVSVRSRRPDGQCTVTEV [G200V;G338V;G339V] |
| decreasing interaction strength | MMAGCGEIDHSINMLPTNRKANESCSNTAPSLTVPECAICLQTCVHPVSLPCKHVFCYLCVKGASWLGKRCALCRQEIPEDFLDKPTLLSPEELKAASRGNGEYAWYYEGRNGWWQYDERTSRELEDAFSKGKKNTEMLIAGFLYVADLENMVQYRRNEHGRRRKIKRDIIDIPKKGVAGLRLDCDANTVNLARESSADVADSVSAQSGASVQPLVSSVRPLTSVDGQLTSPATPSPDASTSLEDSFAHLQLSGDNTAERSHRGEGEEDHESPSSGRVPAPDTSIEETESDASSDSEDVSAVVAQHSLTQQRLLVSNANQTVPDRSDRSGTDRSVAGGGTVSVSVRSRRPDGQCTVTEV [G200V] |

Variants of: B1
Conditions: with tnks1_human TNKS
Remark: another data set of the same source

| effect of a mutation on the interaction | Variant |
| --- | --- |
| decreasing interaction strength | MMAGCGEIDHSINMLPTNRKANESCSNTAPSLTVPECAICLQTCVHPVSLPCKHVFCYLCVKGASWLGKRCALCRQEIPEDFLDKPTLLSPEELKAASRGNGEYAWYYEGRNGWWQYDERTSRELEDAFSKGKKNTEMLIAGFLYVADLENMVQYRRNEHGRRRKIKRDIIDIPKKGVAGLRLDCDANTVNLARESSADGADSVSAQSGASVQPLVSSVRPLTSVDGQLTSPATPSPDASTSLEDSFAHLQLSGDNTAERSHRGEGEEDHESPSSGRVPAPDTSIEETESDASSDSEDVSAVVAQHSLTQQRLLVSNANQTVPDRSDRSGTDRSVAGVVTVSVSVRSRRPDGQCTVTEV [G338V;G339V] |
